According to paper PMC9122601, “A widespread family of WYL-domain transcriptional regulators co-localizes with diverse phage defence systems and islands”:

Target: T1, His6-BrxR-R17A (Escherichia fergusonii (plasmid pEFER), UniProt B7L3Y3 14-308, R30A)
T1 sequence: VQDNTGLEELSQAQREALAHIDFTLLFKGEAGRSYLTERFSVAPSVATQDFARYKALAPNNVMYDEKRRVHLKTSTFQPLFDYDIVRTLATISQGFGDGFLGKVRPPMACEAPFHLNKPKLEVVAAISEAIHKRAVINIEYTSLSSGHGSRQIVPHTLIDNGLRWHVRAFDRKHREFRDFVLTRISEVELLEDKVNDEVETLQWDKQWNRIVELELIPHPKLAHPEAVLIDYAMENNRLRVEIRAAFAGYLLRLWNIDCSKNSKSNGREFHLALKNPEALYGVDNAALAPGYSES
Assay: EMSA; only non-specific binding at high protein; EMSA: 10 mM Tris-HCl pH 7.9, 150 mM KCl, 0.5 mM EDTA, 0.2 mM DTT, 0.1% Triton X-100, 13% glycerol (1x of 5x buffer), 1 ug poly(dI-dC) per 10 ul, 2500 fmol probe, 25 C 30 min; 7% native PAGE in 0.5x TBE
Settings: protein: recombinant; tags: N-terminal His6; chain copies: 2; label: 5' 6-FAM on reverse strand (primer TRB1068); blunt

B1: WT IR1-IR2 probe (R7, R-BOX1) (dsDNA)
DNA 1: GACGACTTGTTGATACTATGAAACCTACTGAAAAACAGTAGGTTGCTTGATGGCATTCAATCGATGGCTTAAGCTTTTGTCAGTGCGCA
DNA 2: TGCGCACTGACAAAAGCTTAAGCCATCGATTGAATGCCATCAAGCAACCTACTGTTTTTCAGTAGGTTTCATAGTATCAACAAGTCGTC
B1: no binding.
